Experimental findings from US20170128554A1 are described below.

This experiment has as its target Fetuin (denatured; sialylated complex N-linked glycans) (UniProt P12763). The experiment is described as follows: fetuin pull-down from cell lysates, low salt buffer, SDS-PAGE band quantification.

Sequence of Fetuin (denatured; sialylated complex N-linked glycans) (P12763 19-359, one chain of several): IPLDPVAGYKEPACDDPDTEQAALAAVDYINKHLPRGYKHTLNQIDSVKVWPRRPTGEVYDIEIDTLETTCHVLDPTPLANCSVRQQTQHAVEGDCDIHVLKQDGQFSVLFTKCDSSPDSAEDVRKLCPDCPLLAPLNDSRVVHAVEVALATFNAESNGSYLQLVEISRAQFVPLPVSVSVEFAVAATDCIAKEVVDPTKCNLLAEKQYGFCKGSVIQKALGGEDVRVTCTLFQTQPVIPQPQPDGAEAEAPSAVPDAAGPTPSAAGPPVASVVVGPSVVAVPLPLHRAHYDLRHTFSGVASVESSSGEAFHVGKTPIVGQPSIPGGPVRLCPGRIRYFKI

“Fbs mutant S155G (from UniProt Q9UK22 113-296)”: the fold capacity to interact with fetuin, against wild type Fbs turned out to be 2 fold.

“Fbs mutant S155A (from UniProt Q9UK22 113-296)”: the fold ability to be pulled down by immobilized fetuin, against wild type Fbs worked out at 1.5 times.
